Laboratory results: paper PMC2873410

How the values were obtained:
Experiment in all cases: cross-linking; lysate (hypotonic buffer) of Sf9 cells expressing the V5-tagged protein, 0.01% glutaraldehyde at room temperature for various times; Western blot with anti-V5 antibody
[1] = target: WSSV structural protein VP24, full length, V5- or FLAG-tagged (white spot syndrome virus (WSSV-TW strain))
[2] = target: WSSV structural protein VP19, full length, V5- or FLAG-tagged (white spot syndrome virus (WSSV-TW strain))
[3] = target: WSSV structural protein VP51A, full length, V5- or FLAG-tagged (white spot syndrome virus (WSSV-TW strain))

WSSV structural protein VP24, full length, V5- or FLAG-tagged (natural protein)
stoichiometry N [1]: 2

WSSV structural protein VP19, full length, V5- or FLAG-tagged (natural protein)
stoichiometry N [2]: 2

WSSV structural protein VP51A, full length, V5- or FLAG-tagged (natural protein)
stoichiometry N [3]: 2
